According to article PMC11964265:
Several values for one entry are separate records, joined by “and”; a condition that tells them apart may be missing. Equal values may be shown once.

What was measured:
[1] = molecular target: Naegleria fowleri cystatin (recombinant, without signal presequence) (Naegleria fowleri (strain HB-1)); test: SEC; analytical size-exclusion chromatography, Superdex 200 Increase 10/300 GL, 20 mM Tris-HCl, 150 mM NaCl, pH 7.5; mass from calibration with Gel Filtration Standard (Bio-Rad)
[2] = molecular target: Cathepsin L holoenzyme from human liver (human)
[3] = molecular target: Recombinant human cathepsin K holoenzyme (human) (UniProt P43235)
Sequence of Recombinant human cathepsin K holoenzyme (human) (P43235 16-329): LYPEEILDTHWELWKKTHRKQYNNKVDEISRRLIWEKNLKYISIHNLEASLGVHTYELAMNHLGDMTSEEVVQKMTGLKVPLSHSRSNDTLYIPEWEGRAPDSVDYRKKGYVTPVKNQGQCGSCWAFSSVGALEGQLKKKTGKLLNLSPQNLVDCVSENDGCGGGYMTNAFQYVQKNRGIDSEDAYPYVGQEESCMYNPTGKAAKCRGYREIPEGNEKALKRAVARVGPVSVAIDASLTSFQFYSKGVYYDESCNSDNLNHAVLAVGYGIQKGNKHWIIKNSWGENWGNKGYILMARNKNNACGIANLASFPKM

Sequence of Cathepsin L holoenzyme from human liver (human) (P07711 18-333): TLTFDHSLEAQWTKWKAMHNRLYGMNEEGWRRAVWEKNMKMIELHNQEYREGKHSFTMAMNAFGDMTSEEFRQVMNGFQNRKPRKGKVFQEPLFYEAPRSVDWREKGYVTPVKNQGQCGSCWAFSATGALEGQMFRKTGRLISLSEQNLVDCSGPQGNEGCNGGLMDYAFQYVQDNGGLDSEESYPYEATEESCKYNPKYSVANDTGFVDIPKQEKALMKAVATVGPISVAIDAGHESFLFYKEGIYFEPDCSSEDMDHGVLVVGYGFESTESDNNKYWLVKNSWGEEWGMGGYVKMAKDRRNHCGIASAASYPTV

“Naegleria fowleri cystatin (recombinant, without signal presequence) (natural protein)” was tested, and the stoichiometry N [1] was 4 and 2, the IC50 of inhibition of peptidase activity (Z-Phe-Arg-AMC cleavage), 50 nM enzyme, 5 nM – 2 µM Nf cystatin, pH 5.5 [2] was 0.517 µM and the IC50 of inhibition of peptidase activity (Z-Phe-Arg-AMC cleavage), 50 nM enzyme, 5 nM – 2 µM Nf cystatin, pH 5.5 [3] was 0.031 µM.
